Data published in US20170226193A1 (UNIVERSITY OF MASSACHUSETTS, published 2017).

T1: a.a. 142-273
T1 construct: not shown: N-terminal His tag and vector-derived linker of pET45-His
T1 chain: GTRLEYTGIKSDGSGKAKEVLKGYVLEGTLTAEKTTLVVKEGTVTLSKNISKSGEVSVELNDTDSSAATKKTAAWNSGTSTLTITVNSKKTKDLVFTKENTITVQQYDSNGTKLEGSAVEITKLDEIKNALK

T2: a.a. 178-273
T2 construct: not shown: N-terminal His tag and vector-derived linker of pET45-His
T2 chain: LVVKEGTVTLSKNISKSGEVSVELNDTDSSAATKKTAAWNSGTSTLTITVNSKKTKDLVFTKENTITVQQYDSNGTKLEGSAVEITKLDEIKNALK

T3: recombinant OspA of Borrelia afzelii ACA-1 (OspA-afzelii) (Borrelia afzelii ACA-1, UniProt P0A3N7 17-273)
T3 construct: also called OspA B. afzelii; not shown: N-terminal GST tag (pGEX-4T-3) or His tag (pET45-His)
T3 sequence: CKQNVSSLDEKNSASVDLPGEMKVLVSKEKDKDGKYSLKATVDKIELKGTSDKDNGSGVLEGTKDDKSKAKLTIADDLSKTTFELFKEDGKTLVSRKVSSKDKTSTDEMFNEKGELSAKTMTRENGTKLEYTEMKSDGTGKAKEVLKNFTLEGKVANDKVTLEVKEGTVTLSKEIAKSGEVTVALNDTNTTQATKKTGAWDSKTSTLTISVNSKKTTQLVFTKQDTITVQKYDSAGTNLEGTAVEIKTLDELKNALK

T4: native OspA on Borrelia afzelii BO23 spirochetes (Borrelia afzelii BO23, UniProt P0A3N7 17-273)
T4 sequence: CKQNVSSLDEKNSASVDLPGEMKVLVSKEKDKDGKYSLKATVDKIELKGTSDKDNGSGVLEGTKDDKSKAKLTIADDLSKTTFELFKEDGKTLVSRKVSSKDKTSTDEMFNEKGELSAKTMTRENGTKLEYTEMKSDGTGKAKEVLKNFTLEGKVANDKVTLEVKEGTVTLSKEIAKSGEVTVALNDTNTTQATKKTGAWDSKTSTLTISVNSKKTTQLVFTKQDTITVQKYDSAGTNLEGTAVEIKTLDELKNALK

T5: a.a.18-141
T5 construct: not shown: N-terminal His tag and vector-derived linker of pET45-His
T5 chain: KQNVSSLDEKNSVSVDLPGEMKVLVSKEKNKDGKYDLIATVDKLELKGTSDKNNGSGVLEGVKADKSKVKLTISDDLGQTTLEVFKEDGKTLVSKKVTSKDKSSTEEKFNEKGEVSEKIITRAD

T6: a.a. 18-177
T6 construct: not shown: N-terminal His tag and vector-derived linker of pET45-His
T6 chain: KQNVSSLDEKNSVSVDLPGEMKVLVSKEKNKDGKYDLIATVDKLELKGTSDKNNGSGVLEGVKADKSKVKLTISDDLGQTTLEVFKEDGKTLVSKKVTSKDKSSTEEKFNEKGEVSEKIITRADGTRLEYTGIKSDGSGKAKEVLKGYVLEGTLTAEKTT

T7: a.a. 71-273
T7 construct: not shown: N-terminal His tag and vector-derived linker of pET45-His
T7 chain: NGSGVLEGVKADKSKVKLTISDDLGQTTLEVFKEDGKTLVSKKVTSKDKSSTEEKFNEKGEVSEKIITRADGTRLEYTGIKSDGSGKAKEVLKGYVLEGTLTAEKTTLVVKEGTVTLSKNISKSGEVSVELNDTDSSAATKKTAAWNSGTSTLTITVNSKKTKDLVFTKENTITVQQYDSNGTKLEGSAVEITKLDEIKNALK

T8: a.a. 106-273
T8 construct: not shown: N-terminal His tag and vector-derived linker of pET45-His
T8 chain: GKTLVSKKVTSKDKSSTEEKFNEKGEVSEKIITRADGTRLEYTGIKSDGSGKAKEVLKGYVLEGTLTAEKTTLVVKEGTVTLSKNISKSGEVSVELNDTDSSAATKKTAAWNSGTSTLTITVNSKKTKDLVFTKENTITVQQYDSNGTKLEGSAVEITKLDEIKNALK

B1: anti-OspA antibody 212-55 (antibody, V domains shown)
VH: EVQLVESGGGLVQPGGSLRLSCAASGFTFRNYWMDWVRQAPGKGLEWVANIKQDGSVKYYVDSVEGRFTISRDNAKNSLFLQMNSLRAEDTAVYYCARDGYSGYDSVGFDIWGQGTMVTVSS
VL: EIVLTQSPGTLSLSPGERATLSCRASQSVSSSYLAWYQQKPGQAPRLLISDTSSRATGIPDRFSGSGSGTDFTLTISRLEPEDFAVYYCQQYGSSPYTFGQGTKLEIK
notes: also called HuMab 212-55
B2: anti-OspA antibody 221-7 (antibody, V domains shown)
VH: EVQLVQSGSEVKKPGESLKISCQVSGYSFTSYWIGWVRQMPGKGLERVGFIYPGDSDTRYSPSFQGQVTISADKSISTAYLQWSSLKASDTAMYYCARGILRYFDWFLDYWGQGTLVTVSS
VL: AIQLTQSPSSLSASVGDRVTITCRASQGISSGSAWYQQKPGKAPKLLIYDVSSLESGVPSRFSGSGSGTEFTLTISSLQPEDFATYYCQQFNSYLLTFGGGTKVEIK
notes: also called HuMab 221-7
B3: anti-OspA antibody 857-2 (antibody, V domains shown)
VH: EVQLVQSGEEVKKPGESLKISCKGSGYKFSSYWIGWVRQMPGKGLEWMGIIFPGDSDKRYSPSFQGQVTISADKSISTVYLQWSSLKASDTAMYYCARHITTHTYRGFFDFWGQGTLVTVSS
VL: AIQLTQSPSSLSASVGDRVTITCRASQDISSALAWYQQKPGKAPKLLIYDVSSLESGVPSRFSGSGSGTDFTLTISSLQPEDFATYYCQQFNGYPHRLTFGGGTKVEIK
notes: also called HuMab 857-2
B4: anti-OspA antibody 319-44 (antibody, V domains shown)
VH: EMQLVQSGAEVKKPGESLKISCKGSGYIFATYWIGWVRQMPGKGLEWMGIIYPNDSDTRYSPSFQGQVTISADKSINTAYLQWSSLKASDTAMYYCARTRWYFDLWGRGTLVTVSS
VL: not shown
notes: also called HuMab 319-44; 319-44 wild-type antibody

Assays:
a.a. 142-273 = target: T1, a.a. 142-273; test: ELISA on plate-coated OspA protein form [panel B]
a.a. 178-273 = target: T2, a.a. 178-273; test: ELISA on plate-coated OspA protein form [panel B]
[1] = target: T9, recombinant OspA of Borrelia garinii PBi (OspA-garinii) (Borrelia garinii PBi, UniProt Q09089 17-273); test: SPR, Biacore 3000; antibody amine-coupled on CM5 chip, OspA in solution
T9 construct: also called OspA B. garinii; not shown: N-terminal GST tag (pGEX-4T-3) or His tag (pET45-His)

[2] = target: T10, recombinant OspA of Borrelia burgdorferi B31 (OspA-burgdorferi) (Borrelia burgdorferi B31, UniProt P0CL66 17-273); test: SPR, Biacore 3000
T10 construct: also called OspA B. burgdorferi; not shown: N-terminal GST tag (pGEX-4T-3) or His tag (pET45-His)

[3] = target: T3, recombinant OspA of Borrelia afzelii …; test: SPR, Biacore 3000
[4] = target: T9, recombinant OspA of Borrelia garinii …; test: SPR, Biacore 3000
[5] = target: T4, native OspA on Borrelia afzelii BO23 …; test: cell-based or functional assay
[6] = target: native OspA on Borrelia garinii PBi spirochetes (Borrelia garinii PBi, UniProt Q09089 17-273); test: cell-based or functional assay
[7] = target: native OspA on Borrelia burgdorferi B31 spirochetes (Borrelia burgdorferi B31, UniProt P0CL66 17-273); test: cell-based or functional assay
a.a.18-141 = target: T5, a.a.18-141; test: ELISA on plate-coated OspA protein form [panel B]
a.a. 18-177 = target: T6, a.a. 18-177; test: ELISA on plate-coated OspA protein form [panel B]
a.a. 71-273 = target: T7, a.a. 71-273; test: ELISA on plate-coated OspA protein form [panel B]
a.a. 106-273 = target: T8, a.a. 106-273; test: ELISA on plate-coated OspA protein form [panel B]
[8] = target: T11, OspA (a.a. 18-273) mutant with D249A and S250A point mutations, N-terminal His tag (Borrelia burgdorferi, UniProt P0CL66 18-273); test: ELISA on plate-coated OspA protein form [panel B]
T11 construct: not shown: N-terminal His tag of the pET45 vector

[9] = target: T10, recombinant OspA of Borrelia …; test: SPR, Biacore 3000; antibody amine-coupled on CM5 chip, OspA in solution
Procedure: (§1) Biacore 3000 was used to determine the affinity of HuMabs to OspA-burgdorferi, OspA-garinii and OspA-afzelii. HuMabs was captured on the surface of a Biacore chip (GE healthcare) via amine coupling (Sensor Chip CM5). The captured Mabs were exposed to various concentrations of OspA in solution. The Kₒₙ and Koff for an affinity (KD) were calculated by BIAevaluation software.

[10] = target: T3, recombinant OspA of Borrelia afzelii …; test: as above
Procedure: as §1

T9 sequence (Q09089 17-273 limits assumed): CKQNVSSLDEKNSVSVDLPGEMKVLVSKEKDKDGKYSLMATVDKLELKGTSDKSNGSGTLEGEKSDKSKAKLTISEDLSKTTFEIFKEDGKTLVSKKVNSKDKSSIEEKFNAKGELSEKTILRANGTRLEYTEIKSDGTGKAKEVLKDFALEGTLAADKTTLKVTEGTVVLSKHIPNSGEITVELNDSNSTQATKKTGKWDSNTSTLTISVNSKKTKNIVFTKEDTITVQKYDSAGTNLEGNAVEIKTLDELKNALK
Chain of native OspA on Borrelia garinii PBi spirochetes (Q09089 17-273 limits assumed): as above

Row | Binder | binding result (a.a. 142-273) | binding result (a.a. 178-273) | Kd [1] [nM] | Kd [2] [nM] | Kd [3] [nM] | Kd [4] [nM] | Borreliacidal activity (EC50 (nM)) [5] [nM] | Borreliacidal activity (EC50 (nM)) [6] [nM] | Borreliacidal activity (EC50 (nM)) [7] [nM] | binding result (a.a.18-141) | binding result (a.a. 18-177) | binding result (a.a. 71-273) | binding result (a.a. 106-273) | binding result [8] | Kd [9] [nM] | Kd [10] [nM]
1 | B1 | binds | no binding | 480 | – | – | – | – | – | – | – | – | – | – | – | – | –
2 | B2 | no binding | no binding | 1.3 | ≤ 22 | ≤ 36 | ≤ 36 | 0.9 | 6.6 | < 0.4 | binds | binds | binds | no binding | binds | 0.66 | 7.8
3 | B3 | no binding | no binding | 1 | ≤ 22 | ≤ 36 | ≤ 36 | 2 | 41.6 | 2 | binds | binds | binds | binds | binds | 0.65 | 1.6
4 | B4 | binds | binds | 674 | – | – | – | 4 | – | < 0.4 | no binding | no binding | binds | binds | no binding | 328 | 1200
